Measured values taken from paper PMC4489214.

Target: LRRTM2 expressed on K562 cells (mouse) (UniProt Q8BGA3)
Experiment: cell adhesion assay; K562 'prey' cells (NRX1-alpha variant, beta-Gal, RFP) mixed with biotinylated K562 'bait' cells (LRRTM2 or NL3(A2), AP-GFP, BirA-ER) on neutravidin magnetic beads; 60 min at RT in DMEM without serum; bound cells read by beta-Gal activity

Sequence of UniProt Q8BGA3 (Q8BGA3 34-515): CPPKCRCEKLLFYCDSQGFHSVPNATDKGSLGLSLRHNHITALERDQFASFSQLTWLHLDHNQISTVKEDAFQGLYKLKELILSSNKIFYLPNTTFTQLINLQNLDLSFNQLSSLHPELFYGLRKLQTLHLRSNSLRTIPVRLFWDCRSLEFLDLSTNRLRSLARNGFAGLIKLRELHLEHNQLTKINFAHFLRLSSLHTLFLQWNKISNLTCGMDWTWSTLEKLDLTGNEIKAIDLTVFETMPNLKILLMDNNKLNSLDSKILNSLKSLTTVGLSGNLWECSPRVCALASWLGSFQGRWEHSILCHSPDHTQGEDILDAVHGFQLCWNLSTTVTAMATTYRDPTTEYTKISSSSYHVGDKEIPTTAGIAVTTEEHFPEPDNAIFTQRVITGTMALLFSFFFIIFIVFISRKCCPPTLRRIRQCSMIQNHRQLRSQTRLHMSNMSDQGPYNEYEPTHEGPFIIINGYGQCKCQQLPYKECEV

Substance | fold increase of adhesion against the AS6+ isoforms
NRX1alpha lacking the insertions at AS3 and AS6, expressed on K562 cells (from UniProt Q9CS84 31-1514) (receptor) | 3 fold
NRX1alpha with the insertion at AS3 and lacking the insertion at AS6, expressed on K562 cells (from UniProt Q9CS84 31-1514) (receptor) | 3 fold
